Columns and labels:
CD19 = target: T1, CD19 (UniProt P15391 20-556); experiment: flow cytometry on A549-CD19, A549-CD19-CD20 and Raji cells, 20 µg/mL
T1 construct: whole, on cells; also called CD19 on A549-CD19, A549-CD19-CD20, K562-CD19+, K562-CD19+CD20+ and Raji cells
T1 sequence (looked up): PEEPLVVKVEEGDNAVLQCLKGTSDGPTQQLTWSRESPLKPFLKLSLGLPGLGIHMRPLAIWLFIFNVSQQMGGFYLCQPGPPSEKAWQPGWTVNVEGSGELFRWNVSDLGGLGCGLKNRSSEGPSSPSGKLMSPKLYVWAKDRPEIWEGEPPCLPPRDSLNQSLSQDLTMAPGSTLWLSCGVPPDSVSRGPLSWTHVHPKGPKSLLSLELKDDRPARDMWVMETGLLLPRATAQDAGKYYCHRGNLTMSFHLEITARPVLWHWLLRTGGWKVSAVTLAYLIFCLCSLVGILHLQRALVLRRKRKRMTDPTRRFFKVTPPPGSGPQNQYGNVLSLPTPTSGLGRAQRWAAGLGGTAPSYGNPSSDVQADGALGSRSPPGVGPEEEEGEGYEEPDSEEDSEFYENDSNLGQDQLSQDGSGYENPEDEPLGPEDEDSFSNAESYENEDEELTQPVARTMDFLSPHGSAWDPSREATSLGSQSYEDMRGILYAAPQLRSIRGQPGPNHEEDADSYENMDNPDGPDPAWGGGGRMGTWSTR
Source text: (§1) To examine the affinity and specificity of the bi-specific scFv in TN-OF 19 CAR, a chimeric rabbit monoclonal antibody was generated by linking the CD20 scFv, derived from the Ofatumumab mAb and the CD19 scFv, derived from the FMC63 mAb in frame with a rabbit IgG1 Fc region. CD19 and CD20 scFvs were alternatively linked by a G4S linker. The molecular order is OF VL-VH-G4S-FMC63 VH-VL, which is the same as scFVs in TN-OF-19. The chimeric antibody was expressed in 293T cells after transient transfection. Validation of this chimeric antibody for specificity of staining was performed by flow cytometry. Briefly, three stable cell lines (A549-CD19, A549-CD20, A549-CD19-CD20) were used as targets, and CD19-CD20-A549 cells and CD19+CD20+ Raji cells were used as control. All cells were washed and resuspended, blocking by 2% serum for 30 minutes. 5×10⁵ cells were transferred to FACS vials, washed and stained with recombinant antibodies (final concentration 20 μg/mL) for 1 h at 4° C. After washing, the secondary antibody (goat anti-rabbit IgG) was added for 30 minutes in dark at 4° C. Finally, cells were washed and resuspended in 200 μL FACS buffer for FACS analysis.

CD20 = target: T2, CD20 (UniProt P11836 1-297); experiment: flow cytometry on A549-CD20, A549-CD19-CD20 and Raji cells, 20 µg/mL
T2 construct: whole, on cells; also called B1; CD20 on A549-CD20, A549-CD19-CD20, K562-CD20+, K562-CD19+CD20+, Raji and Ramos cells
T2 sequence (looked up): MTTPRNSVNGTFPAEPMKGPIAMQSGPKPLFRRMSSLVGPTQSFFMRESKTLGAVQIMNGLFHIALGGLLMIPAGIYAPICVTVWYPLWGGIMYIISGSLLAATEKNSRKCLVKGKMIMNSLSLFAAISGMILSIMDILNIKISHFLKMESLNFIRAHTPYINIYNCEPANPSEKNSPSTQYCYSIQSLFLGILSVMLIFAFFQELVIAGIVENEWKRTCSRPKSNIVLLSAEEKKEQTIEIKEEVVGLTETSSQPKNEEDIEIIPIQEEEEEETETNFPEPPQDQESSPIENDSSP
Source text: as §1

binding result (CD19): binds
binding result (CD20): binds
B1: chimeric rabbit monoclonal antibody (CD20 scFv derived from the Ofatumumab mAb and CD19 scFv derived from the FMC63 mAb, in frame with a rabbit IgG1 Fc region; … (bispecific antibody)
chain: EIVLTQSPATLSLSPGERATLSCRASQSVSSYLAWYQQKPGQAPRLLIYDASNRATGIPARFSGSGSGTDFTLTISSLEPEDFAVYYCQQRSNWPITFGQGTRLEIKGSTSGGGSGGGSGGGGSSEVQLVESGGGLVQPGRSLRLSCAASGFTFNDYAMHWVRQAPGKGLEWVSTISWNSGSIGYADSVKGRFTISRDNAKKSLYLQMNSLRAEDTALYYCAKDIQYGNYYYGMDVWGQGTTVTVSSGGGGSEVKLQESGPGLVAPSQSLSVTCTVSGVSLPDYGVSWIRQPPRKGLEWLGVIWGSETTYYNSALKSRLTIIKDNSKSQVFLKMNSLQTDDTAIYYCAKHYYYGGSYAMDYWGQGTSVTVSSGSTSGSGKPGSGEGSTKGDIQMTQTTSSLSASLGDRVTISCRASQDISKYLNWYQQKPDGTVKLLIYHTSRLHSGVPSRFSGSGSGTDYSLTISNLEQEDIATYFCQQGNTLPYTFGGGTKLEIT
notes: Expressed in 293T cells after transient transfection; also called chimeric antibody; recombinant antibodies; not shown: rabbit IgG1 Fc region

Reference: patent US20230104705A1 (CELLULAR BIOMEDICINE GROUP HK, published 2023)
